Assay results taken from publication PMC10295924.

Biological target: SFB-β-catenin (UniProt P35222)
Test: pull-down; HEK293T cells co-transfected with MYC-LEF1, SFB-β-catenin and OTUD7B-V5 or GFP-V5, treated with 20 mM lithium chloride for 24 h; cytoplasmic and nuclear lysates pulled down with S-protein beads; immunoblot, bands quantified with ImageJ

Sequence of UniProt P35222 (P35222 whole entry): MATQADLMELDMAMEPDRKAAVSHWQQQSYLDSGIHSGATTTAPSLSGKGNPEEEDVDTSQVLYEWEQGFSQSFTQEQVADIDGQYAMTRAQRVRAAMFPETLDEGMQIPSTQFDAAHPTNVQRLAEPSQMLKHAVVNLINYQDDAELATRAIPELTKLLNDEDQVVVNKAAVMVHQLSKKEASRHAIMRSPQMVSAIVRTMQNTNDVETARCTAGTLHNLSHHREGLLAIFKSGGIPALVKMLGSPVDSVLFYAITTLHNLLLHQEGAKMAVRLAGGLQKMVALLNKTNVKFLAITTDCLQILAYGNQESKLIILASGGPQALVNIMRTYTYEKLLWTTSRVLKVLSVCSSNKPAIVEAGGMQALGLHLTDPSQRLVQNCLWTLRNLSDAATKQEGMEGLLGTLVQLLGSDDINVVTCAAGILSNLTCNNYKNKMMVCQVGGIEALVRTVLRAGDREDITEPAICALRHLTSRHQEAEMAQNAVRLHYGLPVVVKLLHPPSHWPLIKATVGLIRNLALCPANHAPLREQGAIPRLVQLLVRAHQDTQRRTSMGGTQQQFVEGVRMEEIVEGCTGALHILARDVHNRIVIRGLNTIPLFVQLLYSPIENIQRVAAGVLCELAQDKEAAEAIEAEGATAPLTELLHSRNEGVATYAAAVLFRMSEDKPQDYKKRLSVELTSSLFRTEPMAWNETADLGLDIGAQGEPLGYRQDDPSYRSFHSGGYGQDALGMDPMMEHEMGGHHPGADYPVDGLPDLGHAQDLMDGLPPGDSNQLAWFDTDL

MYC-LEF1 (Lymphoid enhancer-binding factor 1), full length (natural protein)
fold increase of β-catenin-bound LEF1 in the nucleus with OTUD7B-V5 against GFP-V5: 4.82 fold
